Test results as given in patent US20210290727A1 (UNIVERSITY OF MARYLAND BALTIMORE, published 2021).

Key:
FLAG-tagged TSC2 = molecular target: T1, FLAG-tagged TSC2 (UniProt P49815 1-1807, limits assumed); assay: NanoSPD (nanoTRAP) filopodia co-accumulation in COS-7 cells
T1 construct: also called pRK7-FLAG-TSC2; not shown: FLAG tag

FLAG-tagged TSC1 = molecular target: T2, FLAG-tagged TSC1 (UniProt Q92574 1-1164); assay: as above
T2 construct: also called pRK7-FLAG-TSC1; not shown: FLAG tag
T2 sequence (looked up): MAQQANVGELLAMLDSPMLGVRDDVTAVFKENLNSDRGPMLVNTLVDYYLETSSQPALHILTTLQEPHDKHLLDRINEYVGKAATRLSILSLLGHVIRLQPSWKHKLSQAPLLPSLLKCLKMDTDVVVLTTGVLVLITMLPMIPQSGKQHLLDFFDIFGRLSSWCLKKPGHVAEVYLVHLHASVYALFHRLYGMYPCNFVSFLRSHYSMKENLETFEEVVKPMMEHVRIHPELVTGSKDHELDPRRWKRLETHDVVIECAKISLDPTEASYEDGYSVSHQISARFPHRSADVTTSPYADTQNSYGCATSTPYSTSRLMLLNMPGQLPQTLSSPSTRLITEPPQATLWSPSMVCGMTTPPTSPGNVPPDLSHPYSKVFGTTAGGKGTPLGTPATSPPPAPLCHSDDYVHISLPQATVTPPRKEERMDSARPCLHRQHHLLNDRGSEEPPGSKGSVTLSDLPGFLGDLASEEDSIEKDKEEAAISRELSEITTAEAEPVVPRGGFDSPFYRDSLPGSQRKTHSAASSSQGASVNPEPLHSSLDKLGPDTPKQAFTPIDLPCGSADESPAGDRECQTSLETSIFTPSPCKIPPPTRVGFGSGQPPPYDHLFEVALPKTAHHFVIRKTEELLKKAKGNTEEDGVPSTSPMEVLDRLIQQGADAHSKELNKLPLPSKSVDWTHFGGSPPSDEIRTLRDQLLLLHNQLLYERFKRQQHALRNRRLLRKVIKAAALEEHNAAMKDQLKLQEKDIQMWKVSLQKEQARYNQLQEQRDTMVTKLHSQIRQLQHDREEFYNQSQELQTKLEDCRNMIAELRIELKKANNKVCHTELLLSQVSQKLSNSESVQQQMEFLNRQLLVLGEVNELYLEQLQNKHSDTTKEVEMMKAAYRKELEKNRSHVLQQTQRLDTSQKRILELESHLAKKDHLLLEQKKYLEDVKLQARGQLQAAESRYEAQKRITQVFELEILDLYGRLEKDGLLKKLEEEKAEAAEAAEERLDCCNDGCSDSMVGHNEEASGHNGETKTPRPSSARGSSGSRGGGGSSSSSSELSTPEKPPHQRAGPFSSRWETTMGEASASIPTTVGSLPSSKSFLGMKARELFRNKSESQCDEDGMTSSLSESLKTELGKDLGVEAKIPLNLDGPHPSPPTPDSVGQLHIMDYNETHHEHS

T1 sequence (P49815 whole entry): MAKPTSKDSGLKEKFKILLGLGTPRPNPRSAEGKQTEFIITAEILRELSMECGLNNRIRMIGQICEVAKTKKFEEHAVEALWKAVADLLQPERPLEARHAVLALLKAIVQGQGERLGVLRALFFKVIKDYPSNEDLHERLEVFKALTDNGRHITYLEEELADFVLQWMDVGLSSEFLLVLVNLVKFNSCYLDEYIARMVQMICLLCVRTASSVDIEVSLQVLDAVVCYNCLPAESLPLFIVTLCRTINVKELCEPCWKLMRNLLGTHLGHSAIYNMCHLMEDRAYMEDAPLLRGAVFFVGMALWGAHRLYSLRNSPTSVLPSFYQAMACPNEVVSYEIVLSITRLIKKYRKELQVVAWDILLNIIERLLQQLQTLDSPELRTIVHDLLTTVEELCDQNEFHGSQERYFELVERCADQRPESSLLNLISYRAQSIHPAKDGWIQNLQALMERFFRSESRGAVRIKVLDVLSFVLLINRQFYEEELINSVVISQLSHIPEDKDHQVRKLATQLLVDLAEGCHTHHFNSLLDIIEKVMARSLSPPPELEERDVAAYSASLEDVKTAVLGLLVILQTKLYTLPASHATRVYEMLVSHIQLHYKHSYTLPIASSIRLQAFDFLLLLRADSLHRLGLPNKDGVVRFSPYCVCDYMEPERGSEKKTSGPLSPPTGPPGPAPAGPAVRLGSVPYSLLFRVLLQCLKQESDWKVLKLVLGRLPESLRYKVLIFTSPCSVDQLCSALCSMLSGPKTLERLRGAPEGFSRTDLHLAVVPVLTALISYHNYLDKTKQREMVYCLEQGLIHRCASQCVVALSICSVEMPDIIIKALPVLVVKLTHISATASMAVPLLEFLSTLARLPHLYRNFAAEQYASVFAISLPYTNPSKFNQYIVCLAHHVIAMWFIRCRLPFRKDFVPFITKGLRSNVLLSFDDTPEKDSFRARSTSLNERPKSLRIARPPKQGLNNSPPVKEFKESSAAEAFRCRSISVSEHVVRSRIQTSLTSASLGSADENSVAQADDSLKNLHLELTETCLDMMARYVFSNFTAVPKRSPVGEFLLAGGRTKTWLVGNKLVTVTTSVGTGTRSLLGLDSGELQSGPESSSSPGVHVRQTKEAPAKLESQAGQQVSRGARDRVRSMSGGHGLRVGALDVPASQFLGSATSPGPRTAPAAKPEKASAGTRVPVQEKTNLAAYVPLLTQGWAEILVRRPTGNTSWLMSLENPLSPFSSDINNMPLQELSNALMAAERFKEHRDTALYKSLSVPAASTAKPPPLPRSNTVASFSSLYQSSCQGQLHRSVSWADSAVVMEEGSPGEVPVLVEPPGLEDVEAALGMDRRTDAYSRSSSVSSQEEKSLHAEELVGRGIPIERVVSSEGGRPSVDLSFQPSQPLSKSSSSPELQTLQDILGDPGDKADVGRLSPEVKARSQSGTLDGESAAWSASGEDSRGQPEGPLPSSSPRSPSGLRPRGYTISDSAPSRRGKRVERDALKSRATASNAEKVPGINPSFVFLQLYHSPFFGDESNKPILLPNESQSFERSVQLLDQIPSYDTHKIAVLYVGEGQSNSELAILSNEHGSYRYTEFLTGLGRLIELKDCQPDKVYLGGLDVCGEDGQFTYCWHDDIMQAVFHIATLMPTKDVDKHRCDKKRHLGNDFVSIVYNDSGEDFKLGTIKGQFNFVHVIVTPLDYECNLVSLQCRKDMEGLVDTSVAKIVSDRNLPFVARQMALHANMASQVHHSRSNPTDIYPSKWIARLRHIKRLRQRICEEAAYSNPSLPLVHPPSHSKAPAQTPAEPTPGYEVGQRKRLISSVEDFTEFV

binding result (FLAG-tagged TSC2): no binding
binding result (FLAG-tagged TSC1): no binding
B1: CIB2-eGFP (other)
chain: MGNKQTIFTEEQLDNYQDCTFFNKKDILKLHSRFYELAPNLVPMDYRKSPIVHVPMSLIIQMPELRENPFKERIVAAFSEDGEGNLTFNDFVDMFSVLCESAPRELKANYAFKIYDFNTDNFICKEDLELTLARLTKSELDEEEVVLVCDKVIEEADLDGDGKLGFADFEDMIAKAPDFLSTFHIRI
notes: Expressed in COS-7 cells as bait of the NanoSPD (nanoTRAP) assay; also called hCIB2-eGFP; GFP-hCIB2; not shown: eGFP tag
